According to patent US20240261333A1, “NOVEL TARGETS FOR ENHANCING ANTI-TUMOR IMMUNITY” (THE BROAD INSTITUTE, INC., priority 2021, published 2024):

Columns and labels:
LGALS7B (human) = LGALS7B (human) (UniProt P47929); assay: control IP with IgG, lysate of cells with C-FLAG B3GNT2, mass spectrometry
TPM3 (human) = TPM3 (human) (UniProt P06753); assay: as above
SYNCRIP (human) = SYNCRIP (human) (UniProt O60506); assay: as above
RPL7 (human) = RPL7 (human) (UniProt P18124); assay: as above
RPL8 (human) = RPL8 (human) (UniProt P62917); assay: as above
PPFIBP1 (human) = PPFIBP1 (human) (UniProt Q86W92); assay: as above
FLG (human) = FLG (human) (UniProt P20930); assay: as above
RPL28 (human) = RPL28 (human) (UniProt P46779); assay: as above
TBL2 (human) = TBL2 (human) (UniProt Q9Y4P3); assay: as above
LCN1 (human) = LCN1 (human) (UniProt P31025); assay: as above
TELO2 (human) = TELO2 (human) (UniProt Q9Y4R8); assay: as above
SYNPO (human) = SYNPO (human) (UniProt Q8N3V7); assay: as above
RPL23 (human) = RPL23 (human) (UniProt P62829); assay: as above
EIF3A (human) = EIF3A (human) (UniProt Q14152); assay: as above
RPS26 (human) = RPS26 (human) (UniProt P62854); assay: as above
RPS27A (human) = RPS27A (human) (UniProt P62979); assay: as above
RACK1 (human) = RACK1 (human) (UniProt P63244); assay: as above
SYNM (human) = SYNM (human) (UniProt O15061); assay: as above
RHOT2 (human) = RHOT2 (human) (UniProt Q8IXI1); assay: as above
DHX9 (human) = DHX9 (human) (UniProt Q08211); assay: as above
YBX1 (human) = YBX1 (human) (UniProt P67809); assay: as above
CHCHD3 (human) = CHCHD3 (human) (UniProt Q9NX63); assay: as above
ERLIN2 (human) = ERLIN2 (human) (UniProt O94905); assay: co-IP/MS, anti-FLAG IP of C-FLAG B3GNT2 cell lysate
FAM3C (human) = FAM3C (human) (UniProt Q92520); assay: as above
CANX (human) = CANX (human) (UniProt P27824); assay: as above
TUBB (human) = TUBB (human) (UniProt P07437); assay: as above
SLC25A4 (human) = SLC25A4 (human) (UniProt P12235); assay: as above
CAPZB (human) = CAPZB (human) (UniProt P47756); assay: as above
CALU (human) = CALU (human) (UniProt O43852); assay: as above
RCN2 (human) = RCN2 (human) (UniProt Q14257); assay: as above
SQSTM1 (human) = SQSTM1 (human) (UniProt Q13501); assay: as above
IPO4 (human) = IPO4 (human) (UniProt Q8TEX9); assay: as above
RPL30 (human) = RPL30 (human) (UniProt P62888); assay: as above
RPS15 (human) = RPS15 (human) (UniProt P62841); assay: as above
RPL13A (human) = RPL13A (human) (UniProt P40429); assay: as above
HSD17B12 (human) = HSD17B12 (human) (UniProt Q53GQ0); assay: as above
RPS5 (human) = RPS5 (human) (UniProt P46782); assay: as above
PDIA6 (human) = PDIA6 (human) (UniProt Q15084); assay: as above

Chain of CANX (human) (P27824 21-592 limits assumed): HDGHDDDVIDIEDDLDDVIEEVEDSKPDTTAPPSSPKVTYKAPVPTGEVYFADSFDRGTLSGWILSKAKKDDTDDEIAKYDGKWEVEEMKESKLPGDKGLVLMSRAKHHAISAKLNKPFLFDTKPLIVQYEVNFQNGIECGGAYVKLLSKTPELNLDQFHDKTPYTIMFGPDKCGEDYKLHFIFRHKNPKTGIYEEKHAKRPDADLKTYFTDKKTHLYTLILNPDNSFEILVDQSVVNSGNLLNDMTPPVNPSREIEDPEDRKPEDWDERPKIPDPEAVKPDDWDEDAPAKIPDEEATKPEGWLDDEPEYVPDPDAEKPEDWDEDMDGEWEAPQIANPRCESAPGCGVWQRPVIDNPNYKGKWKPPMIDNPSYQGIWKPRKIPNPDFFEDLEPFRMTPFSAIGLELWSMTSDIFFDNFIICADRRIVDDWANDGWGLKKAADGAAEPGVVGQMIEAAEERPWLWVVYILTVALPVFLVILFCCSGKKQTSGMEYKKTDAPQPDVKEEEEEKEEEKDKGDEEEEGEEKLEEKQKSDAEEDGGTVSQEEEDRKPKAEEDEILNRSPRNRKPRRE
Chain of PPFIBP1 (human) (Q86W92 other isoform, or with tags, fused parts or gaps limits assumed): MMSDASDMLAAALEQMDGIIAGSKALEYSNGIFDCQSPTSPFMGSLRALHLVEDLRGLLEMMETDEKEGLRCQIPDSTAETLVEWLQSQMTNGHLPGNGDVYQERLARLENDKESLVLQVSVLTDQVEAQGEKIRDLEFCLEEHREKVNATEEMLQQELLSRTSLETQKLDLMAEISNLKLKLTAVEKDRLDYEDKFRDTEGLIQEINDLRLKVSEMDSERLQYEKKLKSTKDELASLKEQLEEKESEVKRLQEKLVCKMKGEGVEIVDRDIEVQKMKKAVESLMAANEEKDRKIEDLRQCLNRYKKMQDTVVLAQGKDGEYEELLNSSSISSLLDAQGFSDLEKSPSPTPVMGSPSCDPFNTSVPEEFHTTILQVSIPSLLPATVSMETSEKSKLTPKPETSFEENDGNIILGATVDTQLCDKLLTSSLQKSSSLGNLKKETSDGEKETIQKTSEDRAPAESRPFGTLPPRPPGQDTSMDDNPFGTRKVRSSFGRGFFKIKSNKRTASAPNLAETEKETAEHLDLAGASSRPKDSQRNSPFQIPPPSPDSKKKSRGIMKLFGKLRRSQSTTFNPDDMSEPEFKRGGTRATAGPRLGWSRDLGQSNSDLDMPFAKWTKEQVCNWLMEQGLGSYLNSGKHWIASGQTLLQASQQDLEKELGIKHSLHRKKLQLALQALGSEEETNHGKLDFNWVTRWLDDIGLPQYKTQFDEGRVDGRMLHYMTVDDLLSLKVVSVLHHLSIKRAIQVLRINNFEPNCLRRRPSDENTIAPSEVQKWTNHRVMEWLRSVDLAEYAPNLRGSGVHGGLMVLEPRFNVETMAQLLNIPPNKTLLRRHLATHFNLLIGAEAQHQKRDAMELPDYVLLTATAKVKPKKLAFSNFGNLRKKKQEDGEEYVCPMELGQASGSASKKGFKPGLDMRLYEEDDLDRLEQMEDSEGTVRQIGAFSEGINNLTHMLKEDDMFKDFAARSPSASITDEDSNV
Chain of EIF3A (human) (Q14152 2-1382 limits assumed): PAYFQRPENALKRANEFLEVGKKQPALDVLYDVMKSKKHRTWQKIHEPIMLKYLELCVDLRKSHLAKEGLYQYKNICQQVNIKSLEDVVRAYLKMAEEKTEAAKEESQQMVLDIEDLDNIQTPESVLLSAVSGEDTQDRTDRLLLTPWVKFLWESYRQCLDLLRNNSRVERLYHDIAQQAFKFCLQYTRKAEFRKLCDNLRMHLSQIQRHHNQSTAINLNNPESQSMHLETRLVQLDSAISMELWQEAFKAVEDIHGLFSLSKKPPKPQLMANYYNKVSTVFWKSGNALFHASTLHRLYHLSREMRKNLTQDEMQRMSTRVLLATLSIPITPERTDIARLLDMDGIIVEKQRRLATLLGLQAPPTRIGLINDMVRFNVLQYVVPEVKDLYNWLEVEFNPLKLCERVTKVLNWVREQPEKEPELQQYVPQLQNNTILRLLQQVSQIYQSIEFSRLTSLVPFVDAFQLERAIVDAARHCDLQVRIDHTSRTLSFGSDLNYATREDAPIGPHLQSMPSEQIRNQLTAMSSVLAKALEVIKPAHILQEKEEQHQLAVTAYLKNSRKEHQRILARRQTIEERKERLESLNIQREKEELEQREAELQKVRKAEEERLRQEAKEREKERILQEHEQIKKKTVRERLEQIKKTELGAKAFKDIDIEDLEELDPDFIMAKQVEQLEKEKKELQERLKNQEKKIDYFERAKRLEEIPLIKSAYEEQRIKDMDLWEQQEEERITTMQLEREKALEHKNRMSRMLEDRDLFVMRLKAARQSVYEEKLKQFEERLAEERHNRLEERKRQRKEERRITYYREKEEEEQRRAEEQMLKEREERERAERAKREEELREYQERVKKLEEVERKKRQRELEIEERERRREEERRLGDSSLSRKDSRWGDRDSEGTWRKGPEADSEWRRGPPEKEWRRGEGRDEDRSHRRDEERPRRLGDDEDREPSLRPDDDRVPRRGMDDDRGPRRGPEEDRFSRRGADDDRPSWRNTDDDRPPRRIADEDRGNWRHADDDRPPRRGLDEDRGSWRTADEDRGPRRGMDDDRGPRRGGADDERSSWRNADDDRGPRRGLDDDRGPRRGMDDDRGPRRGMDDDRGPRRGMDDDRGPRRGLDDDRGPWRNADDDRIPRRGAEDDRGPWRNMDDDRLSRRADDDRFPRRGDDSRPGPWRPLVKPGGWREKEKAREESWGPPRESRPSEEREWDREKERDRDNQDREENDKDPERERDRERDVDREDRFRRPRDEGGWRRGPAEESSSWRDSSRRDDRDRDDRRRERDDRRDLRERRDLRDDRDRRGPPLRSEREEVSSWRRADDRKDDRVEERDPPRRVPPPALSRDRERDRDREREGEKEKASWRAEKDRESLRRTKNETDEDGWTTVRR
Chain of CALU (human) (O43852 20-315 limits assumed): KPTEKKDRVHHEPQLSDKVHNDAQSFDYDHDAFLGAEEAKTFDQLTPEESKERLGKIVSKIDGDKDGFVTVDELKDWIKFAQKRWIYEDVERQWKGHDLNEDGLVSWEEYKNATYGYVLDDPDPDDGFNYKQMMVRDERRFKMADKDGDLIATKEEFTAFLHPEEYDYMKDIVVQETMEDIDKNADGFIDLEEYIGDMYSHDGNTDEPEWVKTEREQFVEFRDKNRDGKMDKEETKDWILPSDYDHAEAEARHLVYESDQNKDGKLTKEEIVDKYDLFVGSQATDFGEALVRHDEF
Chain of TELO2 (human) (Q9Y4R8 whole entry): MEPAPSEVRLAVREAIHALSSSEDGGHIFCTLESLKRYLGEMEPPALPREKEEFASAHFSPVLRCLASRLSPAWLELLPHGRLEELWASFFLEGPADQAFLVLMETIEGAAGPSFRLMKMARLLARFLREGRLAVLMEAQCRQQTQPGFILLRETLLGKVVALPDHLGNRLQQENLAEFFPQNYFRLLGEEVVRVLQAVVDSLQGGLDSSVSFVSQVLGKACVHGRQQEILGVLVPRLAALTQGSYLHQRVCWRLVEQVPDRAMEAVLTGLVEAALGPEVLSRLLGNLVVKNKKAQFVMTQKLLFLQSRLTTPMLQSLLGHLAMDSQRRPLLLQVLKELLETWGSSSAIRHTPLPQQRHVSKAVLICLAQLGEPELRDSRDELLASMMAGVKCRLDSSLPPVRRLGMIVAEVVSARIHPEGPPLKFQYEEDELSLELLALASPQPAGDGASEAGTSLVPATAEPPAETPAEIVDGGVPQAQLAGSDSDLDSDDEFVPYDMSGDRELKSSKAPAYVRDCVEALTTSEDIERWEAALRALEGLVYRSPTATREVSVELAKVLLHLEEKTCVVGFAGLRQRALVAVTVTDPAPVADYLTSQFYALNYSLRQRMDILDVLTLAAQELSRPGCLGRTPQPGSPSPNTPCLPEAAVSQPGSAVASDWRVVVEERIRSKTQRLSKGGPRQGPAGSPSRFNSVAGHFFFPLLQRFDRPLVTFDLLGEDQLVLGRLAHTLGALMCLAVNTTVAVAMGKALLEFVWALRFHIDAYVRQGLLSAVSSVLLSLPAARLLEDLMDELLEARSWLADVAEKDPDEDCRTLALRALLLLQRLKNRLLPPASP
Chain of HSD17B12 (human) (Q53GQ0 whole entry): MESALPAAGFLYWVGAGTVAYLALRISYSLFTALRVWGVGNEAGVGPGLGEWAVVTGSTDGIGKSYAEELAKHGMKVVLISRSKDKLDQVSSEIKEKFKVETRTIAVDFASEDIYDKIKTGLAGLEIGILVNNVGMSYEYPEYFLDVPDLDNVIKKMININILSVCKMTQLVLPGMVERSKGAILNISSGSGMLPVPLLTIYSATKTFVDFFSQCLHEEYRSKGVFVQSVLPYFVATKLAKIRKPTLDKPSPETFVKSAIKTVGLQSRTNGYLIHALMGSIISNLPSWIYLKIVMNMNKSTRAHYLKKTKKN
Chain of TPM3 (human) (P06753 other isoform, or with tags, fused parts or gaps limits assumed): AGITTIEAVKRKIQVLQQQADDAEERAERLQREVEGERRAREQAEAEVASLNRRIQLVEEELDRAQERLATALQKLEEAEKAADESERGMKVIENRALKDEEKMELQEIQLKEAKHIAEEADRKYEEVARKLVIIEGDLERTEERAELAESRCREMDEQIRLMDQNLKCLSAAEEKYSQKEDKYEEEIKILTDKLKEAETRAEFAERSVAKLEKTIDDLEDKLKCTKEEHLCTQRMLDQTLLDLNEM
Chain of ERLIN2 (human) (O94905 whole entry): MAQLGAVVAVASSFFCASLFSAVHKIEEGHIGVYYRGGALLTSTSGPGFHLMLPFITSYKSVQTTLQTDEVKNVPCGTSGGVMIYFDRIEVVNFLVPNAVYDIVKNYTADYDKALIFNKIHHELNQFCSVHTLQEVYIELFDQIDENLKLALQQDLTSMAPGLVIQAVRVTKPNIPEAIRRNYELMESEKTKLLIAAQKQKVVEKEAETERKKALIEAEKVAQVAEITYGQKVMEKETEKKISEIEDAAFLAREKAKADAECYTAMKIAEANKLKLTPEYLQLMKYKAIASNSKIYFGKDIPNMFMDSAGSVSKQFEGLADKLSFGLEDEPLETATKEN

## IgG control (Millipore Sigma 12-371) (antibody)
LGALS7B (human)
  co-IP mass spectrometry count: 3
TPM3 (human)
  co-IP mass spectrometry count: 2
SYNCRIP (human)
  co-IP mass spectrometry count: 4
RPL7 (human)
  co-IP mass spectrometry count: 3
RPL8 (human)
  co-IP mass spectrometry count: 3
PPFIBP1 (human)
  co-IP mass spectrometry count: 0
FLG (human)
  co-IP mass spectrometry count: 15
RPL28 (human)
  co-IP mass spectrometry count: 3
TBL2 (human)
  co-IP mass spectrometry count: 0
LCN1 (human)
  co-IP mass spectrometry count: 6
TELO2 (human)
  co-IP mass spectrometry count: 0
SYNPO (human)
  co-IP mass spectrometry count: 4
RPL23 (human)
  co-IP mass spectrometry count: 4
EIF3A (human)
  co-IP mass spectrometry count: 0
RPS26 (human)
  co-IP mass spectrometry count: 0
RPS27A (human)
  co-IP mass spectrometry count: 14
RACK1 (human)
  co-IP mass spectrometry count: 0
SYNM (human)
  co-IP mass spectrometry count: 2
RHOT2 (human)
  co-IP mass spectrometry count: 0
DHX9 (human)
  co-IP mass spectrometry count: 0
YBX1 (human)
  co-IP mass spectrometry count: 5
CHCHD3 (human)
  co-IP mass spectrometry count: 11

## C-terminal FLAG tagged B3GNT2 (from UniProt Q9NY97 1-397) (enzyme)
ERLIN2 (human)
  co-IP mass spectrometry count: 9
FAM3C (human)
  co-IP mass spectrometry count: 23
CANX (human)
  co-IP mass spectrometry count: 11
TUBB (human)
  co-IP mass spectrometry count: 117
SLC25A4 (human)
  co-IP mass spectrometry count: 14
CAPZB (human)
  co-IP mass spectrometry count: 5
CALU (human)
  co-IP mass spectrometry count: 13
RCN2 (human)
  co-IP mass spectrometry count: 16
SQSTM1 (human)
  co-IP mass spectrometry count: 43
IPO4 (human)
  co-IP mass spectrometry count: 17
RPL30 (human)
  co-IP mass spectrometry count: 14
RPS15 (human)
  co-IP mass spectrometry count: 11
RPL13A (human)
  co-IP mass spectrometry count: 13
HSD17B12 (human)
  co-IP mass spectrometry count: 10
RPS5 (human)
  co-IP mass spectrometry count: 6
PDIA6 (human)
  co-IP mass spectrometry count: 14
